The nature of this data set: yeast display, Sf9 membrane polyspecificity reagent, FACS + sequencing; frameworks hold sequencing errors. In outline:
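Polyreactivity labels are assigned by the sorting gate from which each nanobody was recovered. The gates were low and high (top ~1%), set on anti-HA fluorescence for expression and streptavidin fluorescence for reagent binding. Before sorting, galactose-induced (36–48 hours) yeast display cells were stained for 1 hour at 4 °C with 10% biotinylated, detergent-solubilized Sf9 membrane reagent.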
As for “QVQLVESGGGLVQAGGSLRLSCAASGNIFGLYAMGWYRQAPGTERELVAAISFSDTSTYYADSVKGRYTISRDNAKNTVYLQMNSLKPEDTAVYYCAAELWFNNGEHNYWGQGTQVTVSS”, the “polyreactivity (PSR sort gate)” value is reported as “high polyreactivity”.

Take “QVQLVESGGGLVQAGGSLRLSCAASGNIFGVNAMGWYRQAPGKERELVAAITCSDSSTNYADSVKGRFTISRDNAKNTVYLQMNSLKPEDTAVYYCATRVWRSAQSRWYGYDYWGQGTQVTVSS”: the “polyreactivity (PSR sort gate)” value was “high polyreactivity”.

As to “QVQLVESGGGLVQAGGSLRLSCAASGNIFGYYAMGWYRQAPGKERELVAAITTTGGSTYYADSVKGRFTISRDNAKNTVYLQMNSLKPEDTAVYYCAAETGYWYYYWGQGTQVTVSS”, the “polyreactivity (PSR sort gate)” value was “high polyreactivity”.

Take “QVQLVESGGGLVQAGGSLRLSCAASGNIFHVNAMGWYRQAPGKERELVAGITWSGGSTYYADSVKGRFTISRDNAKNTVYLQMNSLKPEDTAVYYCAATGWYFGYGRYGYWVQGTQVTVSS”: the “polyreactivity (PSR sort gate)” value was “high polyreactivity”.

For the sequence “QVQLVESGGGLVQAGGSLRLSCAASGNIFIHYAMGWYRQAPGKERELVAAITWSGGSTYYADSVKGRFTISRDNAKNTVYLQMNSLTPEDTAVSYCNSVSKYGPADGYGDYWGQGTQVTVSS”, the “polyreactivity (PSR sort gate)” value was “high polyreactivity”.

Turning to “QVQLVESGGGLVQAGGSLRLSCAASGNIFKHYAMGWYRQAPGKERELVAAITWSGGSTHYADSVKGLFTISRDNAKNTVYLQMNSLKPEDTAVYYCAARGWWPGTKWTRYDYWGQGTQVTVSS”, the “polyreactivity (PSR sort gate)” value is “high polyreactivity”.

Take “QVQLVESGGGLVQAGGSLRLSCAASGNIFKVYVMGWYRQAPGKERELVAAISGSGGSTYYADSVKGRFTISRDNAKNTVYLQMNSLKPEDTAVYYCNKVFKVTAARSFGYWGQGTQVTVSS”: the “polyreactivity (PSR sort gate)” value was “low polyreactivity”.

“QVQLVESGGGLVQAGGSLRLSCAASGNIFKYYAMGWYRQAPGKERELVAAISWGGSRTYYADSVKGRFTISRDNAKNTVYFQMNILKPEDSAVYYCAAAPRYSWTSVPRYDYWGLGTQVTVSS”: the “polyreactivity (PSR sort gate)” value is “high polyreactivity”.

As for “QVQLVESGGGLVQAGGSLRLSCAASGNIFLFYVMGWYRQAPVKERELVAAITLSGTNTYYADSVKGRFTISRDNAKNNVYLQMNSLKPEDTAVYYCNADWWSDGYDYWGQRTQVTVSS”, the “polyreactivity (PSR sort gate)” value is “low polyreactivity”.

With “QVQLVESGGGLVQAGGSLRLSCAASGNIFLRYAMGWYRQAPGKERELVASITRSGASTYYAVSVKGRFTISRDNAKNTVYLQMNSLKPEDTAVYYCAASYYFRYYRGGYWGQGTQVTVSS”, the “polyreactivity (PSR sort gate)” value was “high polyreactivity”.

Consider “QVQLVESGGGLVQAGGSLRLSCAASGNIFLYYAMGWSRQAPGKERELVADIDSSGASTYYADSVKGRFTISRDNAKNNVYLQMNSLKPEDTAVYYCAAEFHWWYAGYDYGYWGQGTQVTVSS”, for which the “polyreactivity (PSR sort gate)” value is recorded as “low polyreactivity”.

Turning to “QVQLVESGGGLVQAGGSLRLSCAASGNIFLYYAMGWYRPAPGKERELVADIDSSGAATYYADSVKGRFTISRDYAKNTVYLQMNSLKPEDTAVYYCAAEFHWWYAGYDYGYWGQGTQVTVSS”, the “polyreactivity (PSR sort gate)” value is on record as “low polyreactivity”.

“QVQLVESGGGLVQAGGSLRLSCAASGNIFLYYTMGWYRQAPGKERELVAGITSGGSTYYADSVKGRFTISRDNAKNTVSLQMNSLKPEDTAVYYCAATYYPNFYRYYYWGQGTQVTVSS”: the “polyreactivity (PSR sort gate)” value is listed as “low polyreactivity”.

With “QVQLVESGGGLVQAGGSLRLSCAASGNIFNDNAKGLYRKAPVKERELVAAISSGGSTNYADSVKGRFTISRDYAKNTVYLQMNSLKPEDTAVYYCAAELTLIYWWSLDYWGQGTQVTVSS”, the “polyreactivity (PSR sort gate)” value is given as “low polyreactivity”.

“QVQLVESGGGLVQAGGSLRLSCAASGNIFPGYAMGWYRQAPGKERELVAGISGSGGRTYYADSVKGRFTISRDNAKNTVYLQMNSLKTEDTAVYYCAAAFKYYYRFEYDYWGQGTQVTVSS”: the “polyreactivity (PSR sort gate)” value is listed as “low polyreactivity”.

For the sequence “QVQLVESGGGLVQAGGSLRLSCAASGNIFRNNAMGWYRQAPGKERELVAAISYSGGRTYYADSVKGRFTISRDNAKNTVYLQMNSLKPEDTAVYYCAVTYGRNADDYEYWGQGTQVTVSS”, the “polyreactivity (PSR sort gate)” value is reported as “high polyreactivity”.

Turning to “QVQLVESGGGLVQAGGSLRLSCAASGNIFRYNAMGWYRQAPGKERELVAAISSGGSTYYADSVKGRFTISRDNAKNTVYLQMNSLKPEDTAVYYCNRRRWLWQTARGDYWGQGTQVTVSS”, the “polyreactivity (PSR sort gate)” value is listed as “high polyreactivity”.

Turning to “QVQLVESGGGLVQAGGSLRLSCAASGNIFSAYALGWYRQAPGKERELVATITSGGITYYADSVKGRFTISRDNAKNTVYLQMNSLNPEDTAVYYCNADHHGQAEYGYWGQGTQVTVSS”, the “polyreactivity (PSR sort gate)” value is “low polyreactivity”.

On to “QVQLVESGGGLVQAGGSLRLSCAASGNIFSRYAMGWYRQAPGKERELVAAISKSGGSTYYADSVKGRFTISRDNAKNTVYLQMNSLKPEDTAVYYCAAYTFFLGYPEFDYWGQGTQVTVSS”, for which the “polyreactivity (PSR sort gate)” value is recorded as “high polyreactivity”.

Consider “QVQLVESGGGLVQAGGSLRLSCAASGNIFSSYAMGWYRQAPGKERELVARITTSAGRTYYADSVKGRFTISRDNAKNTVYLQMNSLKREETAVYSCAARGQSAYSIWRYYYWGQGTQVTVSS”, for which the “polyreactivity (PSR sort gate)” value is given as “high polyreactivity”.

As for “QVQLVESGGGLVQAGGSLRLSCAASGNIFSVYAMGWYRQAPGKERELVAAISSSGGRTYYADSVKGRFTISRDNAKNTVYLQMNSLKPEDTAVYYCNTAGYDYYSTQAYDYWGQGTQVTVSS”, the “polyreactivity (PSR sort gate)” value was “high polyreactivity”.

Consider “QVQLVESGGGLVQAGGSLRLSCAASGNIFSWYAMGWYRQAPGKERELVAAITSGGRTYYADSVKGRFTISRDNAKNTVYLQMNSLKPEDTAVYYCNAVSRLYNRRDYWGQGTQVTVSS”, for which the “polyreactivity (PSR sort gate)” value is recorded as “high polyreactivity”.

Regarding “QVQLVESGGGLVQAGGSLRLSCAASGNIFSYYAMGWYRQAPGKERELVAAISSGGSTYYADSVKGRFTISRDNAKNTVYLQMNSLKPEDTAVYYCATSYFSYFFYEYYSWGQGTQVTVSS”, the “polyreactivity (PSR sort gate)” value is listed as “low polyreactivity”.

For “QVQLVESGGGLVQAGGSLRLSCAASGNIFTKYAMGWYRQAPGKERELVAAITWSGGSTYYADSVKGRFTISRDNAKNTVDLQMNILKPEDTAVYYCATAHVFRRDKPYDYWGQGTQVTVSS”, the “polyreactivity (PSR sort gate)” value is given as “high polyreactivity”.

As for “QVQLVESGGGLVQAGGSLRLSCAASGNIFVAYAMGWYRQAPGKERELVAAITSGGRTYADSVKGRFTISSDNAKNTVYLQMNSLKPEDTAVYYCNADPYYVYLGYYDRYYSGYGYWGLGTQVTVSS”, the “polyreactivity (PSR sort gate)” value is given as “low polyreactivity”.

As for “QVQLVESGGGLVQAGGSLRLSCAASGNIFVAYAMGWYRQAPGKERELVAVISNGGRTYYADSVKGRFTISRDKAKNNVYLQMNSLKPADTAVSYCATVAHASYGWHNYWGQGTQVTVSS”, the “polyreactivity (PSR sort gate)” value is “high polyreactivity”.

“QVQLVESGGGLVQAGGSLRLSCAASGNIFVDNAMGWYRQAPGKERELVAAITFSGDDTYYADSVKGRFTISRDNAKNTVYLQMNSLKPEDTAVYYCNAVPTLYWWYDYWGQGTQVTVSS”: the “polyreactivity (PSR sort gate)” value is “low polyreactivity”.

As for “QVQLVESGGGLVQAGGSLRLSCAASGNIFVINAMGWYRQAPGKERELVAAISWSTANTYYADSVKGRFTISRDNAKNTVYLQLNSLKPEDTAVYYCAAVFRYYTYSGAVRYYYWGQGTQVTVSS”, the “polyreactivity (PSR sort gate)” value is “high polyreactivity”.

Take “QVQLVESGGGLVQAGGSLRLSCAASGNIFVRYAMGWYRQAPGKEREFVAAISSSGGSTRYADSVKGRFTISRDNAKNTVYLQMNSLKPEDTAVYYCAATRVARHGSPMYYWGQGTQVTVSS”: the “polyreactivity (PSR sort gate)” value is “high polyreactivity”.

With “QVQLVESGGGLVQAGGSLRLSCAASGNIFVSNVMGWYRQAPGKERELVAAISSGGRTYYADSVKGRFTISRDNAKNTVYLQMNSLKPEDTAVYYCAASYKSKYLGGGEYWGQGTQVTVSS”, the “polyreactivity (PSR sort gate)” value is recorded as “high polyreactivity”.

In the case of “QVQLVESGGGLVQAGGSLRLSCAASGNIFVYNAMGWYRQAPGKEREFVAAIDSGGSTYYADSVKGRFTISRDNAKNTVYLQMNSLKPEDTAVYYCARAVVQSRGPPRYKTPYDYWGQGTQVTVSS”, the “polyreactivity (PSR sort gate)” value is listed as “low polyreactivity”.

On to “QVQLVESGGGLVQAGGSLRLSCAASGNIFWWNAMGWYRQAPGKERELVAAITSDSTTYYADSVKGRFTISRDNAKNTVYFQMNCLKPEDTAVYYCAAYSYGGQGVDYGYWGQGTQVSVSS”, for which the “polyreactivity (PSR sort gate)” value is “low polyreactivity”.

As to “QVQLVESGGGLVQAGGSLRLSCAASGNIFYGYAMGWYRQAPGKERELVAAISRAGRTYYADSVKGRFTISRDNAKNTVYLQMNSLKPEDTAVYYCAADFYYASYVRYNYWGQGTQVTVSS”, the “polyreactivity (PSR sort gate)” value is reported as “low polyreactivity”.

With “QVQLVESGGGLVQAGGSLRLSCAASGNIFYYYAMGWYRQAPGKERELVADITSGGDTDYADSVKGRFTISRDNAKNTVYLQMNSLKPEDTAVYYCNAQYYFHVTYDYWGQGTQVTVSS”, the “polyreactivity (PSR sort gate)” value was “low polyreactivity”.

In the case of “QVQLVESGGGLVQAGGSLRLSCAASGNIIQYYAMGWYRQAPGKERELVADIDSSGASKYYADSVKGRFTISRDNAKNTVYLQMNSLKPEVTAVYYCAAEFHWWYAGYDYGYWGQGTQVTVSS”, the “polyreactivity (PSR sort gate)” value was “low polyreactivity”.

With “QVQLVESGGGLVQAGGSLRLSCAASGNIIYQNAKGLYRQAPGKERELVAAITGRGSSTYYADSVKGRFTISRDNAKNTVYLQMNSMKPEDTAVYYCAADTTPYDGYYGHGYWGQGTQVTVSS”, the “polyreactivity (PSR sort gate)” value was “low polyreactivity”.

As for “QVQLVESGGGLVQAGGSLRLSCAASGNILFNNSMGWYRQAPGKERELVAAISRSAGSTYYADSVKGSFTISRDNEKNTVYLQMNRLKPEDTAVYYCAAQYFRRSGYWGQGTQVTVSS”, the “polyreactivity (PSR sort gate)” value is listed as “high polyreactivity”.

In the case of “QVQLVESGGGLVQAGGSLRLSCAASGNILLFNAMGWYRQAPGKERELVATINQSGGRTYYADSVKGRFTISRDNAKNTVYLQMNSLKPEDTAVYYCAATRRYPPYFHHYDYWGQGTQVTVSS”, the “polyreactivity (PSR sort gate)” value is “low polyreactivity”.

As for “QVQLVESGGGLVQAGGSLRLSCAASGNILSVNAMGWYRQAPGKERELVASIRSSTASTYYADSVKGRFTISRDNAKNTVYLQMNSLKPEDTAVYYCAARARYNRYDYWGQGTQVTVSS”, the “polyreactivity (PSR sort gate)” value was “high polyreactivity”.

For “QVQLVESGGGLVQAGGSLRLSCAASGNIYAYYAMGWYRQAPGKEWELVAAITDSGGNTFYADSVKGRFTISRDNAKNTVYLQMNSLKPVDTAVYYCAADPDGWGFVYPRYDYWGQGTQVTVSS”, the “polyreactivity (PSR sort gate)” value is “low polyreactivity”.

For the sequence “QVQLVESGGGLVQAGGSLRLSCAASGNIYPYYAIGWYRQAPGKERELVAAINAGGGNTYYADSVKGRFTISRDNAKNTVYLQMNSLKPEDTAVYYCAARRVRIYYGSVVWYKYDYWGQGTQVTVSS”, the “polyreactivity (PSR sort gate)” value is “high polyreactivity”.
